Data reported in publication PMC3964918 (RNA, 2014).
Read-outs that look alike come from different tables or passages of the source. One block for each binder: values may come before it.

Assays:
Assay in all cases: far-Western, overlay or dot blot
[1] = target: T1, SynPnp, recombinant Synechocystis PNPase (Synechocystis PCC6803, UniProt P72659 1-718)
T1 sequence (looked up): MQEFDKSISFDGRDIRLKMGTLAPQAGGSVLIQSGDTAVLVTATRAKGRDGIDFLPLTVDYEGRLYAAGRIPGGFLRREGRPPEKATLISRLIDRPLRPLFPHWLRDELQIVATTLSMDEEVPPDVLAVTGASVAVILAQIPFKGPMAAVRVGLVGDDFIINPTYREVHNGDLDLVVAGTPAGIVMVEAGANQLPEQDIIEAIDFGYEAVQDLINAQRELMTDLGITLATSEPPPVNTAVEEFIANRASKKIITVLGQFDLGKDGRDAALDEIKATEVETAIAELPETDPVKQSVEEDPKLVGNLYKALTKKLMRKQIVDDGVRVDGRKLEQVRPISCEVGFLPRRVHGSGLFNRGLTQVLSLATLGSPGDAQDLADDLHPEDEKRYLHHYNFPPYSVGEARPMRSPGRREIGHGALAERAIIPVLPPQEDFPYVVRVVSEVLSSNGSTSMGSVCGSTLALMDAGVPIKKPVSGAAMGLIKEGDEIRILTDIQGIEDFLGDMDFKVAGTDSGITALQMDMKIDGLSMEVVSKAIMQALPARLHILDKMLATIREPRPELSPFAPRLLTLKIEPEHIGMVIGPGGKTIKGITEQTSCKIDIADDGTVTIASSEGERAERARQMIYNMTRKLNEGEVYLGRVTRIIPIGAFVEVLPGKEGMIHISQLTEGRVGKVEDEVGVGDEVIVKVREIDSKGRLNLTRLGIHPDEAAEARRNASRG

[2] = target: T2, AnaPnp, recombinant Anabaena PNPase (Anabaena PCC7120, UniProt Q8YP11 1-718)
T2 sequence (looked up): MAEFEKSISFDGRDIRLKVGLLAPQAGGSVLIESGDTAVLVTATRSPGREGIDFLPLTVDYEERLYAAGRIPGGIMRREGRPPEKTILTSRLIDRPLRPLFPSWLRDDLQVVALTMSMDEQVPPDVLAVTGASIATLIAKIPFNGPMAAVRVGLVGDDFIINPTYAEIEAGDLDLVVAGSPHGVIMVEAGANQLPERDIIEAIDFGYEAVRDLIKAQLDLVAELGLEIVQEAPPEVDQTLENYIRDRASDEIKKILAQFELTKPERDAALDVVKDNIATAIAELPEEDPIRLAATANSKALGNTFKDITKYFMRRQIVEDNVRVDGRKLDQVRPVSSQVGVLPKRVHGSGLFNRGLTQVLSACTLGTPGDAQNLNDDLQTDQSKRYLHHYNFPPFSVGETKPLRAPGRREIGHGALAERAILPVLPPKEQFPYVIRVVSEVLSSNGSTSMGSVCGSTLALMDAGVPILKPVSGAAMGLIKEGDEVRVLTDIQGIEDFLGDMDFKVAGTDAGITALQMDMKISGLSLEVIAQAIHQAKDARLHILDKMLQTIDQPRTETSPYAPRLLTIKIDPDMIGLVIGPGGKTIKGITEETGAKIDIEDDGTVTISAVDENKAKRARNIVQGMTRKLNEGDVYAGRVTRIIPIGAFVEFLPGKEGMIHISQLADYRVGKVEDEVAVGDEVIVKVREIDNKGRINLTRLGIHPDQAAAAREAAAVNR

[3] = target: T1, SynPnp, recombinant Synechocystis PNPase; remark: listed apart in the source

binding result [1]: binds
B1: synthetic nonapeptide of C4 (peptide)
peptide: RRRRRRSSA

binding result [2]: binds
B2: GFP-C4a (GFP fused at its C-terminus to C4 with four flanking residues at both ends) (peptide)
chain: STANRRRRRRSSASDSD

binding result [3]: binds
B3: GFP-C4b (GFP fused at its C-terminus to the C4 nonapeptide) (peptide)
chain: RRRRRRSSA
